# Results published in patent US8986682B2, “Method to increase the absorption of unsaturated fatty acids by human infants” (Swedish Orphan Biovitrum AB (publ), priority 2010, dated 2015).
# Several values for one entry are separate records, joined by “and”; a condition that tells them apart may be missing. Equal entries are not always repeated. Marks after values point to notes of the source that are not given here.
# Tested on: preterm infants born before week 32 of gestational age
# Test: Coefficient of fat absorption (CFA), fat balance of food and stool by gas chromatography, studies BVT.BSSL-020/-021
# Assay type: in vivo, human
# Parameters: Coefficient of Absorption of AA (C20:4 n-6), Minimum: concentration or dose not given beside the values
# Details: for CFA (overall), LS Mean Difference (rhBSSL − Placebo) / CFA (overall), Maximum / CFA (overall), Mean (SD) / CFA (overall), Median / CFA (overall), Minimum: last 72 h of 7-day treatment
# Procedure: Patients were randomized to infant formula/pasteurized breast milk supplemented with rhBSSL at a final concentration of 0.15 g/L, or to infant formula/pasteurized breast milk “supplemented” with sterile water for injection (as placebo) for the first 7 days. After a washout period of 2 days, the patient was “crossed over” to the other treatment regimen during a second 7-day treatment period. Collection of feces samples for CFA assessment were performed during the last 3 days (72 hours) of each treatment period.
# The collection of feces for the determination of CFA was performed over a period corresponding to the fat, i.e., formula or milk, ingestion during 72 hours toward the end of each treatment period. Diapers supplied to each site were used for feces collection. During the two treatment periods, a carmine red tracer dye was given as a marker together with a meal (approximately at noon) on Day 4 and Day 13, respectively, and collection of stool commenced with the appearance of the first carmine red marker in the stool. The stool containing the first marker was collected and the date and time of the first stool collected was recorded on the CRF. At 72 hours following administration of the first red marker, the second carmine marker was given, and stool collection continued until the second carmine marker appeared. The stool containing the second marker was not collected, but the date and time of the appearance of the second marker was recorded on the CRF. Diapers were weighed before placement and after removal and the difference in weight was recorded on the CRF. The times of each collection and the elapsed duration of the entire collection period was also recorded on the CRF. The use of ointments for the treatment of skin irritation was prohibited during the stool collection period. Diapers were to be changed frequently during the collection period to keep the skin dry. Patients with skin rash severity leading to discontinuation of the stool collection were to be withdrawn from the study. Specific collection methods were provided in a separate laboratory manual. If applicable, vomit from the stool collection periods of both treatment periods was weighed. A small cloth/linen was weighed and placed under the head of each infant. When the cloth/linen was soiled with vomit, it was removed and re-weighed. If an additional cloth was used to remove vomit from the infant, that cloth was also weighed before and after use. The weight of vomit (total weight minus the weight of the cloth/linen) was recorded on the CRF. All other feed losses, e.g., formula or milk left in bottle, were measured and the amount accounted for in the calculation of the volume of formula consumed at each feeding.
# Feces samples, the formula (study 020) and the milk aliquots (study 021) were analyzed by a central laboratory. Individual fatty acids, including the long-chain polyunsaturated fatty acids DHA and AA, were quantified in feces and feed by a gas chromatographic method following extraction by the Folch method. In both studies, the Omegawax 250 column (Supelco) was used for separation of the fatty acids. However, due to co-elution of DHA with nervonic acid (C24:1), which was only present in the breast milk, samples from patients of the per-protocol analysis set from study 021 were also analyzed using a SP-2380 column (Supelco) in order to quantify DHA for those samples from study 021. […] Total lipids were calculated as the sum of the individual fatty acids. (See Section 7.5.1). The same analytical principle was used to determine lipids in each of the batches of formula and aliquots of breast milk used in the study. […]
# [1] = BVT.BSSL-021 (pasteurized breast milk), PP
# [2] = BVT.BSSL-021 (pasteurized breast milk), PP, 72-hour collection period
# [3] = BVT.BSSL-021 Pasteurized milk, PP
# [4] = combined analysis, PP, post hoc
# [5] = combined data, PP, 72-hour collection, rhBSSL (N = 46)
molecule,measurement,setting,value
"rhBSSL: recombinant human bile-salt-stimulated lipase, SEQ ID. NO. 1, expressed from recombinant CHO cells; used in both clinical trials (protein, listed as Homo sapiens) AKLGAVYTEGGFVEGVNKKLGLLGDSVDIFKGIPFAAPTKALENPQPHPGWQGTLKAKNFKKRCLQATITQDSTYGDEDCLYLNIWVPQGRKQVSRDLPVMIWIYGGAFLMGSGHGANFLNNYLYDGEEIATRGNVIVVTFNYRVGPLGFLSTGDANLPGNYGLRDQHMAIAWVKRNIAAFGGDPNNITLFGESAGGASVSLQTLSPYNKGLIRRAISQSGVALSPWVIQKNPLFWAKKVAEKVGCPVGDAARMAQCLKVTDPRALTLAYKVPLAGLEYPMLHYVGFVPVIDGDFIPADPINLYANAADIDYIAGTNNMDGHIFASIDMPAINKGNKKVTEEDFYKLVSEFTITKGLRGAKTTFDVYTESWAQDPSQENKKKTVVDFETDVLFLVPTEIALAQHRANAKSAKTYAYLFSHPSRMPVYPKWVGADHADDIQYVFGKPFATPTGYRPQDRTVSKAMIAYWTNFAKTGDPNMGDSAVPTHWEPYTTENSGYLEITKKMGSSSMKRSLRTNFLRYWTLTYLALPTVTDQEATPVPPTGDSEATPVPPTGDSETAPVPPTGDSGAPPVPPTGDSGAPPVPPTGDSGAPPVPPTGDSGAPPVPPTGDSGAPPVPPTGDSGAPPVPPTGDSGAPPVPPTGDAGPPPVPPTGDSGAPPVPPTGDSGAPPVTPTGDSETAPVPPTGDSGAPPVPPTGDSEAAPVPPTDDSKEAQMPAVIRF","CFA for C20:3 n-6 (sum of C20:3 n-6 and C20:3 n-3), Difference (rhBSSL − Placebo)",[1],8.91* %
same,CFA for C20:4 n-6 (AA),[1],72.10%
same,"CFA for C20:4 n-6 (AA), Difference (rhBSSL − Placebo)",[1],10.82* %
same,CFA for C22:6 n-3 (DHA),[1],78.49%
same,"CFA for C22:6 n-3 (DHA), Difference (rhBSSL − Placebo)",[1],4.72* %
same,CFA for C24:1,[1],36.85%
same,"CFA for C24:1, Difference (rhBSSL − Placebo)",[1],7.68%
same,"Total Amount of Fat in Stool, Maximum",[2],13.3 g
same,"Total Amount of Fat in Stool, Mean (SD)",[2],6.16 g and 6.16 (3.550) g
same,"Total Amount of Fat in Stool, Median",[2],4.99 g
same,"Total Amount of Fat in Stool, Minimum",[2],0.9 g
same,"Coefficient of absorption of the sum of all LCPUFAs, LS mean",[3],70.2%
same,"Coefficient of absorption of the sum of all LCPUFAs, LS mean difference (rhBSSL-Placebo)",[3],8.02%
same,"Coefficient of absorption of the sum of all polyunsaturated fatty acids, LS mean",[3],70.7%
same,"Coefficient of absorption of the sum of all polyunsaturated fatty acids, LS mean difference (rhBSSL-Placebo)",[3],6.92%
same,"Coefficient of absorption of the sum of all saturated fatty acids, LS mean",[3],66.1%
same,"Coefficient of absorption of the sum of all saturated fatty acids, LS mean difference (rhBSSL-Placebo)",[3],4.36%
same,"Coefficient of absorption of the sum of all unsaturated fatty acids, LS mean",[3],70.6%
same,"Coefficient of absorption of the sum of all unsaturated fatty acids, LS mean difference (rhBSSL-Placebo)",[3],5.10%
same,CFA for C12:0,[4],88.86%
same,"CFA for C12:0, Difference (rhBSSL − Placebo)",[4],2.42%
same,CFA for C14:0 (myristic acid),[4],76.15%
same,"CFA for C14:0 (myristic acid), Difference (rhBSSL − Placebo)",[4],4.81%
same,CFA for C16:0,[4],55.49%
same,"CFA for C16:0, Difference (rhBSSL − Placebo)",[4],2.61%
same,CFA for C18:0,[4],44.28%
same,"CFA for C18:0, Difference (rhBSSL − Placebo)",[4],1.51%
same,CFA for C18:1,[4],73.66%
same,"CFA for C18:1, Difference (rhBSSL − Placebo)",[4],3.65%
same,CFA for C18:2 n-6 (linoleic acid),[4],77.49%
same,"CFA for C18:2 n-6 (linoleic acid), Difference (rhBSSL − Placebo)",[4],5.79%
same,CFA for C18:3 n-3 (alpha-linolenic acid),[4],76.31%
same,"CFA for C18:3 n-3 (alpha-linolenic acid), Difference (rhBSSL − Placebo)",[4],3.66%
same,"Total Amount of Fat in Stool, Maximum",[5],15.0 g
same,"Total Amount of Fat in Stool, Mean (SD)",[5],7.50 g and 7.50 (3.635) g
same,"Total Amount of Fat in Stool, Median",[5],7.05 g
same,"Total Amount of Fat in Stool, Minimum",[5],0.9 g
same,"Total Amount of Fat in Stool, Mean (SD)","combined data, PP, second column also headed rhBSSL (N = 46), placebo according to b324",8.36 (4.018) g
same,"Coefficient of Absorption of AA (C20:4 n-6), LS Mean","combined studies 020+021, FAS",77.60%
same,"Coefficient of Absorption of AA (C20:4 n-6), LS Mean Difference (rhBSSL − Placebo)","combined studies 020+021, FAS",8.70%
same,"Coefficient of Absorption of AA (C20:4 n-6), Maximum","combined studies 020+021, FAS",100.0%
same,"Coefficient of Absorption of AA (C20:4 n-6), Mean (SD)","combined studies 020+021, FAS",77.88 (17.628) %
same,"Coefficient of Absorption of AA (C20:4 n-6), Median","combined studies 020+021, FAS",81.28%
same,"Coefficient of Absorption of AA (C20:4 n-6), Minimum","combined studies 020+021, FAS",26.6%
same,"Coefficient of Absorption of DHA (C22:6 n-3), LS Mean","combined studies 020+021, FAS",77.91%
same,"Coefficient of Absorption of DHA (C22:6 n-3), LS Mean Difference (rhBSSL − Placebo)","combined studies 020+021, FAS",6.24%
same,"Coefficient of Absorption of DHA (C22:6 n-3), Maximum","combined studies 020+021, FAS",100.0%
same,"Coefficient of Absorption of DHA (C22:6 n-3), Mean (SD)","combined studies 020+021, FAS",77.97 (16.251) %
same,"Coefficient of Absorption of DHA (C22:6 n-3), Median","combined studies 020+021, FAS",81.22%
same,"Coefficient of Absorption of DHA (C22:6 n-3), Minimum","combined studies 020+021, FAS",26.8%
same,"CFA (overall), LS Mean Difference (rhBSSL − Placebo)","combined studies 020+021, FAS",3.70%
same,"CFA (overall), Maximum","combined studies 020+021, FAS",93.2%
same,"CFA (overall), Mean (SD)","combined studies 020+021, FAS",67.80 (16.663) %
same,"CFA (overall), Median","combined studies 020+021, FAS",71.09%
same,"CFA (overall), Minimum","combined studies 020+021, FAS",11.7%
same,"Coefficient of Absorption of AA (C20:4 n-6), LS Mean","combined studies 020+021, PP",77.36%
same,"Coefficient of Absorption of AA (C20:4 n-6), LS Mean Difference (rhBSSL − Placebo)","combined studies 020+021, PP",8.63%
same,"Coefficient of Absorption of AA (C20:4 n-6), Maximum","combined studies 020+021, PP",100.0%
same,"Coefficient of Absorption of AA (C20:4 n-6), Mean (SD)","combined studies 020+021, PP",78.01 (16.881) %
same,"Coefficient of Absorption of AA (C20:4 n-6), Median","combined studies 020+021, PP",81.01%
same,"Coefficient of Absorption of AA (C20:4 n-6), Minimum","combined studies 020+021, PP",26.6%
same,"Coefficient of Absorption of DHA (C22:6 n-3), LS Mean","combined studies 020+021, PP",79.83%
same,"Coefficient of Absorption of DHA (C22:6 n-3), LS Mean Difference (rhBSSL − Placebo)","combined studies 020+021, PP",5.80%
same,"Coefficient of Absorption of DHA (C22:6 n-3), Maximum","combined studies 020+021, PP",100.0%
same,"Coefficient of Absorption of DHA (C22:6 n-3), Mean (SD)","combined studies 020+021, PP",79.76 (14.075) %
same,"Coefficient of Absorption of DHA (C22:6 n-3), Median","combined studies 020+021, PP",82.90%
same,"Coefficient of Absorption of DHA (C22:6 n-3), Minimum","combined studies 020+021, PP",42.2%
same,"CFA (overall), LS Mean Difference (rhBSSL − Placebo)","combined studies 020+021, PP",3.56%
same,"CFA (overall), Maximum","combined studies 020+021, PP",93.2%
same,"CFA (overall), Mean (SD)","combined studies 020+021, PP",69.08% and 69.08 (14.683) %
same,"CFA (overall), Median","combined studies 020+021, PP",71.83%
same,"CFA (overall), Minimum","combined studies 020+021, PP",31.2%
same,Relative increase of overall CFA compared to the LS mean for placebo,"combined studies, PP",5.4%
same,Relative increase of overall CFA compared to the LS mean for placebo,"formula-fed infants (BVT.BSSL-020), PP",3.1%
